Positions count from the first letter of the chain named. Names may count otherwise. “And” between values parts separate entries of the source, which are not always exact repeats. Equal entries are not always repeated.
How the values were obtained:
[1] = target: the molecule itself; assay: mass photometry; free enzyme, 500 nM, 30 mM HEPES buffer, pH 7.5, 20 °C; histograms fitted to the sum of five Gaussian distributions
[2] = target: the molecule itself; assay: mass photometry; in the presence of substrates, under the reaction conditions; fitted globally with the kinetic data (association constants monomer to trimer K_(a,3E), hexamer K_(a,6E), higher oligomers K_(a,agg))
[3] = target: the molecule itself; assay: not stated; oligomeric state under all conditions of the kinetic experiments (Fig. S8); method not given

B1: fluorinase FlA1 from Streptomyces sp. strain MA37 (5'-fluoro-5'-deoxyadenosine synthase), wild type (enzyme, UniProt W0W999 1-299, looked up)
chain: MAANGSQRPIIAFMSDLGTTDDSVAQCKGLMHSICPGVTVVDVCHSMTPWDVEEGARYIVDLPRFFPEGTVFATTTYPATGTTTRSVAVRIRQAAKGGARGQWAGSGDGFERADGSYIYIAPNNGLLTTVLEEHGYIEAYEVTSTKVIPANPEPTFYSREMVAIPSAHLAAGFPLAEVGRRLDDSEIVRFHRPAVEISGEALSGVVTAIDHPFGNIWTNIHRTDLEKAGIGQGKHLKIILDDVLPFEAPLTPTFADAGAIGNIAFYLNSRGYLSLARNAASLAYPYNLKAGLKVRVEAR
notes: fluorinase FlA1 (5'-fluoro-5'-deoxyadenosine synthase), Streptomyces sp. strain MA37; Exists as trimers, hexamers and higher oligomers; also called wild-type FlA1; wild-type fluorinase; source: overexpressed in Escherichia coli, purified
stoichiometry N [1]: 3 and 6

B2: fluorinase FlA1 variant W50F (enzyme, Streptomyces sp. strain MA37, UniProt W0W999 1-299, looked up)
chain: B1 chain with W50F
notes: fluorinase FlA1, Streptomyces sp. strain MA37, wild type with W50F
binding result [2]: binds

B3: fluorinase FlA1 variant A279R (enzyme, Streptomyces sp. strain MA37, UniProt W0W999 1-299, looked up)
chain: B1 chain with A279R
notes: fluorinase FlA1, Streptomyces sp. strain MA37, wild type with A279R
stoichiometry N [2]: 6

B4: fluorinase FlA1 variant C44T (enzyme, Streptomyces sp. strain MA37, UniProt W0W999 1-299, looked up)
chain: B1 chain with C44T
notes: fluorinase FlA1, Streptomyces sp. strain MA37, with C44T; everywhere else C44T; also called FlA1+C44T
stoichiometry N [3]: 6

B5: fluorinase FlA1 double mutant W50F+A279R (enzyme, Streptomyces sp. strain MA37, UniProt W0W999 1-299, looked up)
chain: B1 chain with W50F, A279R
notes: fluorinase FlA1, Streptomyces sp. strain MA37, wild type with W50F and A279R; also called A279R+W50F; FlA1+A279R+W50F
stoichiometry N [2]: 6

From doi:10.1101/2025.07.28.666932, “Mechanism-Guided Engineering of Fluorinase Unlocks Efficient Nucleophilic Biofluorination” (bioRxiv, 2025)
